# Experimental data taken from article PMC11381367.
# Tests used:
# RCC1 = assay: SPR; conditions: EMSA: 20 mM HEPES pH 7.6, 50 mM NaCl, 5% sucrose, 1 mM DTT, 2.5 mM MgCl2, 0.1 mg/ml BSA, on ice 1 h, SPR: 10 mM HEPES pH 7.4, 150 mM NaCl, 3 mM EDTA, 0.05% …
# [1] = biological target: unmodified nucleosome (Xenopus laevis histones, Widom 601 DNA) (Xenopus laevis); assay: SPR; Biacore 8K; 5' biotinylated 185 bp nucleosome (about 200 RU) captured on streptavidin on a CM5 chip; RCC1 as analyte in 2-fold dilutions; HBS-EP+ (10 mM HEPES pH 7.4, 150 mM NaCl, 3 mM EDTA, 0.05% Tween-20); 1:1 steady-state affinity fit, two replicates
# [2] = biological target: H2AK119ub nucleosome (dichloroacetone-linked ubiquitin on histone H2A-K119, Xenopus laevis histones) (Xenopus laevis | not stated) (UniProt P06897); assay: as above
# Chain of RCC1 (P18754 whole entry): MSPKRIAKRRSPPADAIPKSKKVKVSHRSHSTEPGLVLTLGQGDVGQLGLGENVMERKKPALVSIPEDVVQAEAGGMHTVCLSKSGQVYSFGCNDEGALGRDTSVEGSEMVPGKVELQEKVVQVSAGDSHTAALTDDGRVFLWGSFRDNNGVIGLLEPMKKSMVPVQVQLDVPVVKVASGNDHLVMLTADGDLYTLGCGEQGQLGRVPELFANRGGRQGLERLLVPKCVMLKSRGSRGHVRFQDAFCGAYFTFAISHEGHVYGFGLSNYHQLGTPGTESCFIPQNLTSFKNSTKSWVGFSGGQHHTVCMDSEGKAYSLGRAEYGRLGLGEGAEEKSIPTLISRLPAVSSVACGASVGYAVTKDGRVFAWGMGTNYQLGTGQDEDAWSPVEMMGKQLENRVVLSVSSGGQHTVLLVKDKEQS
substance,measurement,setting,value
"H2BK120ub nucleosome, 185 bp 601 (SPR)",Kd,RCC1; histone H2BK120ub,> 10000 nM
"unmodified nucleosome, 185 bp 601 (SPR)",Kd,RCC1; unmodified histones,730 nM
"H2AK119ub nucleosome, 185 bp 601 (SPR)",Kd,RCC1; histone H2AK119ub,540 nM
RCC1 (from UniProt P18754 1-421) (natural protein),Kd,[1],730 nM
same,Kd,[2],540 nM
